From US20110002929A1 (Ablynx, published 2011) come the findings set out here.

In one assay the target is T1, TNFα (UniProt P01375 77-233).
T1 construct: also called TNF-alpha
In words: competition ELISA on RANK-L-coated plates, 1 nM Nanobody preincubated with the ligand. Background: An ELISA detects its analyte on a solid surface through an enzyme-linked reagent.

Another assay deals with T2, TRAIL (UniProt P50591 114-281, limits assumed).
T2 construct: also called tumor necrosis factor-related apoptosis inducing ligand
The description is as above.

For a further assay, the target named is T3, CD40 ligand (UniProt P29965 113-261, limits assumed).
T3 sequence (looked up): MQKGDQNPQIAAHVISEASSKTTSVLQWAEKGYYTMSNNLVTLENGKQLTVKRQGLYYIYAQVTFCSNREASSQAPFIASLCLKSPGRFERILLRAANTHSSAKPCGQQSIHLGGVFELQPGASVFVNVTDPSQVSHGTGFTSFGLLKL
The assay is described as above.

In assay [1] the target is T4, human RANK-L (human, UniProt O14788 140-317, limits assumed).
T4 sequence (looked up): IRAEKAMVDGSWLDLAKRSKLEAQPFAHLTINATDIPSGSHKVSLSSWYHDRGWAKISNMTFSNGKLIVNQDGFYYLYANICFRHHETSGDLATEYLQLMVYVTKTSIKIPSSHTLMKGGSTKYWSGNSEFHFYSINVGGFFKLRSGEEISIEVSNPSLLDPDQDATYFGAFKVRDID
The experiment in a line: cell-based or functional assay.

For assay [2], the target named is T4, human RANK-L. In words: FMAT, ALEXA647-hRANK-L / RANK on HEK293T cells.
Assay [3] deals with T4, human RANK-L. The experiment in a line: SPR Biacore 3000, hRANK-L on CM5, 100 nM Nanobody. Here is the method:
(§1) Binding kinetics of the humanized versions of Nanobodu RANL13 were also analysed by Surface Plasmon Resonance (Biacore 3000). […] Nanobody binding was assessed at one concentration (100 nM). Each Nanobody was injected for 4 minutes at a flow rate of 45 μl/min to allow binding to chip-bound antigen. Next, binding buffer without Nanobody was sent over the chip at the same flow rate to allow spontaneous dissociation of bound Nanobody.
In general terms: SPR reads the build-up and loss of mass on a sensor chip optically.

Assay [4] has as its target T4, human RANK-L. The experiment in a line: AlphaScreen, biotin-hRANK-L / RANK-huFc beads.
In assay [5] the target is T5, human RANK-L, full length, membrane-bound, expressed on HEK293T cells (human, UniProt O14788 1-317).
T5 construct: whole, on cells; also called hRANK-L
T5 sequence (looked up): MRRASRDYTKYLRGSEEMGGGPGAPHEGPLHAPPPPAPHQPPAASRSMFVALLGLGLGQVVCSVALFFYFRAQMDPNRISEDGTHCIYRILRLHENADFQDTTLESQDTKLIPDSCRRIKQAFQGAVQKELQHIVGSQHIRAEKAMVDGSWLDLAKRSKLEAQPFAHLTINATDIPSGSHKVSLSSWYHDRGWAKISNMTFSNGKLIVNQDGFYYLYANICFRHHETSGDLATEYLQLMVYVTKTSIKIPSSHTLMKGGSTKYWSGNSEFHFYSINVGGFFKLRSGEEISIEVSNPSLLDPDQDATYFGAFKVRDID
In words: FACS, HEK293T with human RANK-L, 80 pM Nanobody. As to the method:
(§2) Human embryonic kidney cells (HEK293T) were grown in Dulbecco's modified Eagles's medium supplemented with 10% fetal bovine serum (FBS), […] L-glutamine, 0.4 mM sodium pyruvate. […] After 48 hours, transfected cells were subjected to FACS analysis. […] Then cells were washed three times with FACS buffer. Bound Nanobodies were detected by subsequent incubations of a primary mouse anti Myc antibody (30 min at 4° C. (2 μg/ml)) and a second incubation with goat anti mouse-Phycoerythrin (PE) (Jackson Laboratories) for another 30 min at 4° C. Finally, after washing, the cells were resuspended in PBS+10% FBS+TO-PRO®-3 (5 nM) (Molecular Probes®, Invitrogen, Merelbeke, Belgium) and cell surface fluorescence expressed as mean PE fluorescence, was measured using flow cytometry.
(In flow cytometry, cells or beads pass a laser one at a time.)

Assay [6] deals with T4, human RANK-L. In words: AlphaScreen, biotin-hRANK-L / RANK-huFc beads. The source holds these as a separate data set.
Assay [7] concerns the target T4, human RANK-L. In words: SPR Biacore 3000, hRANK-L on CM5, 100 nM Nanobody; only indicative (one concentration). As to the method:
as §1

Assay [8] has as its target T5, human RANK-L, full length, …. In words: FACS, HEK293T with human RANK-L, 3.2 pM Nanobody. As to the method: as §2

T2 sequence (P50591 114-281 limits assumed): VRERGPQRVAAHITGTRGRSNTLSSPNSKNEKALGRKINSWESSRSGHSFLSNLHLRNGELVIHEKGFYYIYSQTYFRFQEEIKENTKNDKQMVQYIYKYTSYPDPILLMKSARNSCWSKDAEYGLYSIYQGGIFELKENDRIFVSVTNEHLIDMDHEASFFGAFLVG
T1 sequence (P01375 77-233 limits assumed): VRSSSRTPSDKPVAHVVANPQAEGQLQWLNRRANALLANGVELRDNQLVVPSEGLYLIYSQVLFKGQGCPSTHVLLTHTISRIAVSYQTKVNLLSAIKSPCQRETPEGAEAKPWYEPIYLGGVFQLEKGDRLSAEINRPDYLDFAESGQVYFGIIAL

B1: RANKL18 (VHH, not shown: small tags and cut ends)
VHH: EVQLVESGGGLVQAGGSLRLSCAASGRTFSRSAMGWFRQAPGKEREFVGFITGSGGTTYYGESVKGRFTISRDNAQNPVYLQMNSLKPEDTAVYYCGVYRRTYISSTYSESSEYDYWGQGTQVTVSS
What is called IC50 is the midpoint of a concentration-inhibition curve. Low readings indicate inhibition by little substance, high ones a need for much substance. In general, koff refers to the rate constant with which the complex falls apart. Low values mean a long-lived complex, high ones a short-lived complex. Usually Kd stands for the equilibrium constant for the complex coming apart. Lower therefore signals a tighter complex. Broadly, the kon is a measure of how fast the partners come together. Regarding B1, the binding result in the assay with TNFα, with TRAIL and in the assay with CD40 ligand was “no binding (tested: approximately 100 nM)” throughout. Further, in the assay with human RANK-L [1], the “RANK-L induced NF-kappaB activation (luciferase reporter, HEK293T cells), IC50” value stood at 15200 pM. In addition, the IC50 in the assay with human RANK-L [2] worked out at 253 pM; with human RANK-L [4], 292 pM; with human RANK-L [6], 187 pM. The same molecule registered a dissociation rate constant (koff) with human RANK-L [3] of 5.6e-05 s⁻¹. The values for the PE mean fluorescence in [5] and in assay [8] were 649 and 105, respectively. In the assay with human RANK-L [7], the affinity, expressed as Kd, was 180 pM. The molecule further registered a kon with human RANK-L [7] of 310000 M⁻¹ s⁻¹.

B2: RANKL13 (VHH, not shown: small tags and cut ends)
VHH: EVQLVESGGGLVQAGGSLRLSCAASGRTFRSYPMGWFRQAPGKEREFVASITGSGGSTYYADSVKGRFTISRDNAKNTVYLQMNSLRPEDTAVYSCAAYIRPDTYLSRDYRKYDYWGQGTQVTVSS
Consider B2, for which the binding result with TNFα, in the assay with TRAIL and with CD40 ligand was “no binding (tested: approximately 100 nM)” each time. Moreover, in the assay with human RANK-L [1], the “RANK-L induced NF-kappaB activation (luciferase reporter, HEK293T cells), IC50” value was found to be 6200 pM. Moreover, the IC50 with human RANK-L [2] stood at 264 pM; in the assay with human RANK-L [4], 174 pM; in the assay with human RANK-L [6], 147 pM. The molecule further displayed a koff in the assay with human RANK-L [3] of 0.00025 s⁻¹. For the same molecule, the PE mean fluorescence in assay [5] was found to be 1530; in assay [8] it was 220. In the assay with human RANK-L [7], this molecule registered a Kd of 500 pM. Besides, in the assay with human RANK-L [7], the kon stood at 500000 M⁻¹ s⁻¹.
